{"source": "the array DNA melting data of Ke et al."}
{"experiment": "melting temperature; melt of duplexes", "conditions": "sodium 0.0675 M; strand 1 µM", "units": {"Tm": "°C"}}
{"substance": "CGACGTGCAGCATGTGCTG+CAGCACATCCGGCACGTCG ((((((((.(.((((((((+)))))))).).))))))))", "Tm": 49}
{"substance": "CGACGTGCAGCATGTGCTG+CAGCACATCGCGCACGTCG ((((((((...((((((((+))))))))...))))))))", "Tm": 51.6}
{"substance": "CGACGTGCAGCATGTGCTG+CAGCACATGCAGCACGTCG ((((((((.((((((((((+)))))))))).))))))))", "Tm": 60.8}
{"substance": "CGACGTGCAGCATGTGCTG+CAGCACATGCCGCACGTCG ((((((((.((((((((((+)))))))))).))))))))", "Tm": 59.1}
{"substance": "CGACGTGCAGCATGTGCTG+CAGCACATGGAGCACGTCG ((((((((..(((((((((+)))))))))..))))))))", "Tm": 54.1}
{"substance": "CGACGTGCAGCATGTGCTG+CAGCACATGGGGCACGTCG ((((((((..(((((((((+)))))))))..))))))))", "Tm": 56.9}
{"substance": "CGACGTGCAGCATGTGCTG+CAGCACATTCCGCACGTCG ((((((((.(.((((((((+)))))))).).))))))))", "Tm": 46.4}
{"substance": "CGACGTGCAGCATGTGCTG+CAGCACATTCGGCACGTCG ((((((((.(.((((((((+)))))))).).))))))))", "Tm": 49.7}
{"substance": "CGACGTGCAGCATGTGCTG+CAGCACATTTGGCACGTCG ((((((((...((((((((+))))))))...))))))))", "Tm": 45.4}
{"substance": "CGACGTGCAGGATGTGCTG+CAGCACATAACGCACGTCG ((((((((...((((((((+))))))))...))))))))", "Tm": 50.8}
{"substance": "CGACGTGCAGGATGTGCTG+CAGCACATAATGCACGTCG (((((((((..((((((((+))))))))..)))))))))", "Tm": 55.2}
{"substance": "CGACGTGCAGGATGTGCTG+CAGCACATACAGCACGTCG ((((((((.(.((((((((+)))))))).).))))))))", "Tm": 55}
{"substance": "CGACGTGCAGGATGTGCTG+CAGCACATACGGCACGTCG ((((((((.(.((((((((+)))))))).).))))))))", "Tm": 56.1}
{"substance": "CGACGTGCAGGATGTGCTG+CAGCACATAGAGCACGTCG ((((((((...((((((((+))))))))...))))))))", "Tm": 49.4}
{"substance": "CGACGTGCAGGATGTGCTG+CAGCACATAGCGCACGTCG ((((((((...((((((((+))))))))...))))))))", "Tm": 49.6}
{"substance": "CGACGTGCAGGATGTGCTG+CAGCACATAGTGCACGTCG (((((((((..((((((((+))))))))..)))))))))", "Tm": 50.6}
{"substance": "CGACGTGCAGGATGTGCTG+CAGCACATCACGCACGTCG ((((((((..(((((((((+)))))))))..))))))))", "Tm": 55.9}
{"substance": "CGACGTGCAGGATGTGCTG+CAGCACATCAGGCACGTCG ((((((((..(((((((((+)))))))))..))))))))", "Tm": 56.6}
{"substance": "CGACGTGCAGGATGTGCTG+CAGCACATCCAGCACGTCG ((((((((.((((((((((+)))))))))).))))))))", "Tm": 59.8}
{"substance": "CGACGTGCAGGATGTGCTG+CAGCACATCCGGCACGTCG ((((((((.((((((((((+)))))))))).))))))))", "Tm": 62.2}
{"substance": "CGACGTGCAGGATGTGCTG+CAGCACATCTGGCACGTCG ((((((((..(((((((((+)))))))))..))))))))", "Tm": 57.1}
{"substance": "CGACGTGCAGGATGTGCTG+CAGCACATGAAGCACGTCG ((((((((...((((((((+))))))))...))))))))", "Tm": 50.3}
{"substance": "CGACGTGCAGGATGTGCTG+CAGCACATGACGCACGTCG ((((((((...((((((((+))))))))...))))))))", "Tm": 47.3}
{"substance": "CGACGTGCAGGATGTGCTG+CAGCACATGATGCACGTCG (((((((((..((((((((+))))))))..)))))))))", "Tm": 55}
{"substance": "CGACGTGCAGGATGTGCTG+CAGCACATGCAGCACGTCG ((((((((.(.((((((((+)))))))).).))))))))", "Tm": 55}
{"substance": "CGACGTGCAGGATGTGCTG+CAGCACATGCCGCACGTCG ((((((((.(.((((((((+)))))))).).))))))))", "Tm": 54}
{"substance": "CGACGTGCAGGATGTGCTG+CAGCACATGCGGCACGTCG ((((((((.(.((((((((+)))))))).).))))))))", "Tm": 55.3}
{"substance": "CGACGTGCAGGATGTGCTG+CAGCACATGCTGCACGTCG ((((((((((.((((((((+)))))))).))))))))))", "Tm": 59.6}
{"substance": "CGACGTGCAGGATGTGCTG+CAGCACATGGAGCACGTCG ((((((((...((((((((+))))))))...))))))))", "Tm": 50.3}
{"substance": "CGACGTGCAGGATGTGCTG+CAGCACATGGCGCACGTCG ((((((((...((((((((+))))))))...))))))))", "Tm": 49.9}
{"substance": "CGACGTGCAGGATGTGCTG+CAGCACATGGGGCACGTCG ((((((((...((((((((+))))))))...))))))))", "Tm": 50.4}
{"substance": "CGACGTGCAGGATGTGCTG+CAGCACATGTGGCACGTCG ((((((((...((((((((+))))))))...))))))))", "Tm": 50.9}
{"substance": "CGACGTGCAGGATGTGCTG+CAGCACATTACGCACGTCG ((((((((...((((((((+))))))))...))))))))", "Tm": 50.7}
{"substance": "CGACGTGCAGGATGTGCTG+CAGCACATTAGGCACGTCG ((((((((...((((((((+))))))))...))))))))", "Tm": 51.3}
{"substance": "CGACGTGCAGGATGTGCTG+CAGCACATTCGGCACGTCG ((((((((.(.((((((((+)))))))).).))))))))", "Tm": 56.2}
{"substance": "CGACGTGCAGGATGTGCTG+CAGCACATTTAGCACGTCG ((((((((...((((((((+))))))))...))))))))", "Tm": 50.3}
{"substance": "CGACGTGCAGTATGTGCTG+CAGCACATAATGCACGTCG (((((((((.(((((((((+))))))))).)))))))))", "Tm": 57}
{"substance": "CGACGTGCAGTATGTGCTG+CAGCACATACAGCACGTCG ((((((((.((((((((((+)))))))))).))))))))", "Tm": 57.4}
{"substance": "CGACGTGCAGTATGTGCTG+CAGCACATACGGCACGTCG ((((((((.((((((((((+)))))))))).))))))))", "Tm": 58.3}
{"substance": "CGACGTGCAGTATGTGCTG+CAGCACATAGCGCACGTCG ((((((((..(((((((((+)))))))))..))))))))", "Tm": 51.7}
{"substance": "CGACGTGCAGTATGTGCTG+CAGCACATCACGCACGTCG ((((((((...((((((((+))))))))...))))))))", "Tm": 50.9}
{"substance": "CGACGTGCAGTATGTGCTG+CAGCACATCAGGCACGTCG ((((((((...((((((((+))))))))...))))))))", "Tm": 50.2}
{"substance": "CGACGTGCAGTATGTGCTG+CAGCACATCCTGCACGTCG ((((((((((.((((((((+)))))))).))))))))))", "Tm": 56.3}
{"substance": "CGACGTGCAGTATGTGCTG+CAGCACATCGAGCACGTCG ((((((((...((((((((+))))))))...))))))))", "Tm": 50.1}
{"substance": "CGACGTGCAGTATGTGCTG+CAGCACATCGCGCACGTCG ((((((((...((((((((+))))))))...))))))))", "Tm": 49.9}
{"substance": "CGACGTGCAGTATGTGCTG+CAGCACATCGTGCACGTCG (((((((((..((((((((+))))))))..)))))))))", "Tm": 48.2}
{"substance": "CGACGTGCAGTATGTGCTG+CAGCACATCTCGCACGTCG ((((((((...((((((((+))))))))...))))))))", "Tm": 50.1}
{"substance": "CGACGTGCAGTATGTGCTG+CAGCACATGACGCACGTCG ((((((((...((((((((+))))))))...))))))))", "Tm": 49.1}
{"substance": "CGACGTGCAGTATGTGCTG+CAGCACATGAGGCACGTCG ((((((((...((((((((+))))))))...))))))))", "Tm": 51.4}
{"substance": "CGACGTGCAGTATGTGCTG+CAGCACATGCAGCACGTCG ((((((((.(.((((((((+)))))))).).))))))))", "Tm": 54.7}
{"substance": "CGACGTGCAGTATGTGCTG+CAGCACATGCGGCACGTCG ((((((((.(.((((((((+)))))))).).))))))))", "Tm": 55.3}
{"substance": "CGACGTGCAGTATGTGCTG+CAGCACATGGAGCACGTCG ((((((((...((((((((+))))))))...))))))))", "Tm": 50.6}
